According to PMC10765524 (2023):

What was measured:
Test in all cases: FP
[1] = target: FAM122AID(S120C) (FAM122AID-tracer) (UniProt Q96E09 29-120, S120C, Alexa Fluor 488 C5 Maleimide label (fluorescence polarization assay))
[2] = target: FAM_(67-120)S120C (UniProt Q96E09 67-120, S120C, Alexa Fluor 488 C5 Maleimide label)
[3] = target: T1, ARPP19 S104A as used in the fluorescence polarization assay (UniProt P56211 1-112, S104A)
T1 sequence: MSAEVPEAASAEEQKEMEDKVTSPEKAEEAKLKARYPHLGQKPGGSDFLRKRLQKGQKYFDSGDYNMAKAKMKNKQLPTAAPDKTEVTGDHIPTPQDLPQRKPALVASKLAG

[4] = target: T2, ARPP19(S10C) labelled with Alexa Fluor 488 (ARPP19-tracer) (UniProt P56211 1-112, S10C, Alexa Fluor 488 C5 Maleimide label)
T2 sequence: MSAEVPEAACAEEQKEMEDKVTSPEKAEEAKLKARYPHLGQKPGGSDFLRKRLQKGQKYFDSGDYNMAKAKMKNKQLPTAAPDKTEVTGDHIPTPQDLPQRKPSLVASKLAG

B1: B55 loopless (B55LL) (domain or fragment)
chain: MAGAGGGNDIQWCFSQVKGAVDDDVAEADIISTVEFNHSGELLATGDKGGRVVIFQQEQENKIQSHSRGEYNVYSTFQSHEPEFDYLKSLEIEEKINKIRWLPQKNAAQFLLSTNDKTIKLWKISNGEASPRRIFANAHTYHINSISINSDYETYLSADDLRINLWHLEITDRSFNIVDIKPANMEELTEVITAAEFHPNSCNTFVYSSSKGTIRLCDMRASALCDRHSKLFEEPEDPSNRSFFSEIISSISDVKFSHSGRYMMTRDYLSVKIWDLNMENRPVETYQVHEYLRSKLCSLYENDCIFDKFECCWNGSDSVVMTGSYNNFFRMFDRNTKRDITLEASRENNKPRTVLKPRKVCASGKRKKDEISVDSLDFNKKILHTAWHPKENIIAVATTNNLYIFQDKVN
Kd [1]: 837 nM | Kd [2]: 827 nM | Kd [3]: 326 nM | Kd [4]: 323 nM
